The values that follow come from patent US20230067811A1, “MODULATING LYMPHATIC VESSELS IN NEUROLOGICAL DISEASE” (University of Virginia Patent Foundation, priority 2020, published 2023).

Assay [1] deals with human LECs. Briefly: Human LECs incubated with Aβ42, bulk RNA-seq. The class given is cell-based. As to conditions: 100 nM, 24 h, vs scrambled peptide. As for the experimental part: To determine whether the increased levels of Aβ alone could account for the observed changes in the LEC transcriptome, human LECs were incubated with 100 nM human Aβ1-42 (a monomeric/dimeric preparation) or control scrambled human Aβ1-42 peptide for 24 or 72 h (FIG. 5J).
Cultures of human LECs. […]
Bulk RNA sequencing. […] The mergedfastq files were then chastity filtered to remove low quality bases, trimmed using the trimmomatic software, and mapped to the UCSC […] genome using Salmon (Harrow, J. et al. GENCODE: the reference human genome annotation for The ENCODE Project. Genome Res 22, 1760-1774, (2012); Patro, R., Duggal, G., Love, M. I., Irizarry, R. A. & Kingsford, C. Salmon provides fast and bias-aware quantification of transcript expression. Nat Methods 14, 417-419, (2017)). […] The resulting transcript abundances were read into R and summarized using tximport (Soneson, C., Love, M. I. & Robinson, M. D. Differential analyses for RNA-seq: transcript-level estimates improve gene-level inferences. F1000Res 4, 1521, (2015)). […]

Assay [2] concerns 5×FAD mice. Kind of assay: Meningeal lymphatic and blood vessel morphology after i.c.m. AAV1-mVEGF-C plus anti-Abeta antibody. Format: in vivo, mouse. The following applies: adult 5×FAD mice, AAV1 vector i.c.m., meningeal whole mounts. As for the experimental part: Adult 5×FAD mice were treated with a combination of VEGF-c and an antibody that binds amyloid beta (ABETA Mab1) administered into the cisterna magna (i.c.m). After administration of AAV1 vector expressing VEGF-c or eGFP and the antibody according to schematic shown in FIG. 1A, brain and meningeal morphology was observed. Representative images of the meningeal whole-mounts of 5×FAD mice treated with different combinations of mIgG2a or monoclonal anti-amyloid beta antibody (“ABETA Ab”) with AAV1-CMV-eGFP or AAV1-CMV-mVEGF-C are shown in FIG. 1B. Meninges were stained for LYVE-1 and CD31; scale bar, 1 mm; inset, 300 m (FIG. 1B) Measurements of transverse sinus diameter, coverage by LYVE-1negCD31^+ blood vessels, total number of lymphatic branches, transverse sinus lymphatic vessel diameter and coverage by LYVE-1+ lymphatic vessels (See FIGS. 1C-1G). Results in FIGS. 1C-1G are presented as mean±s.e.m.; n=7 in eGFP+mIgG2a, n=6 in eGFP+ABETA Ab, in mVEGF-C+mIgG2a and in mVEGF-C+ABETA Ab; Two-way ANOVA with Sidak's multiple comparison test. In FIGS. 1D and 1G, the units for the Y-axis are percentage of field of view (“% FOV”).
Science 352, 712-716, (2016)) or microhemorrhages in the brain and meninges (Salloway, S. et al. Two phase 3 trials of bapineuzumab in mild-to-moderate Alzheimer's disease. […]

Assay [3] deals with APPswe mice. Kind of assay: Brain Aβ plaques in aged APPswe mice after i.c.m. AAV1-mVEGF-C plus anti-Abeta antibody. Format: in vivo, mouse. As to conditions: with anti-amyloid beta antibody, vs eGFP vector. The source says:
Age of APPswe mice and treatment regimen of anti-amyloid beta antibody with AA1 vector expressing VEGF-c or eGFB via i.c.m are shown in FIG. 3A. Results of behavioral tests (open field (OF), novel location recognition (NLR) and contextual fear conditioning (CFC)) are shown in FIGS. 3B-3D. […] Time investigating one of the object location (% of total time investigating objects) in the training trial and time investigating the novel object location (% of total time investigating) in the NLR test are shown in FIG. 3C. Representative images of the brain sections of APPswe mice treated with anti-Abeta antibody and with AAV1-CMV-eGFP or AAV1-CMV-mVEGF-C are shown in FIG. 3E. Brain sections were stained for Aβ and with DAPI; scale bar, 1 mm. FIGS. 3F-3G show plaque density (number of plaques per mm^2), average size (m^2) and coverage (% of brain section) in the cortex and amygdala or in the hippocampus. Results in FIGS. 3B-3D, 3F, and 3G are presented as mean s.e.m.; n=11 per group; Two-tailed unpaired Student's T test.
Intra-cisterna magna and intravenous injections. Mice were anaesthetized by intraperitoneal (i.p.) injection of a mixed solution of ketamine (100 mg/Kg) and xylazine (10 mg/Kg) in saline. […]
Immunohistochemistry, imaging and quantifications. […]

For assay [4], the system named is meningeal lymphatic vessels. As to conditions: Example 4 of WO2017/210343; cited from earlier work.

With “Aβ1-42: synthetic monomeric/dimeric human amyloid beta 1-42 peptides (Anaspec AS-20276)”, the “gene expression in human LECs” value in assay [1] was “Changes in gene expression”.

B1: VEGF-c: VEGFR3 agonist polypeptide (SEQ ID NO: 1), flow modulator; in Examples 1-3 delivered by AAV1 vector expressing VEGF-c (protein, listed as Homo sapiens)
chain: MHLLGFFSVACSLLAAALLPGPREAPAAAAAFESGLDLSDAEPDAGEATAYASKDLEEQLRSVSSVDELMTVLYPEYWKMYKCQLRKGGWQHNREQANLNSRTEETIKFAAAHYNTEILKSIDNEWRKTQCMPREVCIDVGKEFGVATNTFFKPPCVSVYRCGGCCNSEGLQCMNTSTSYLSKTLFEITVPLSQGPKPVTISFANHTSCRCMSKLDVYRQVHSIIRRSLPATLPQCQAANKTCPTNYMWNNHICRCLAQEDFMFSSDAGDDSTDGFHDICGPNKELDEETCQCVCRAGLRPASCGPHKELDRNSCQCVCKNKLFPSQCGANREFDENTCQCVCKRTCPRNQPLNPGKCACECTESPQKCLLKGKKFHHQTCSCYRRPCTNRQKACEPGFSYSEEVCRCVPSYWKRPQMS
For B1, the lymphatic diameter entry in assay [2] is “increased lymphatic diameter”. In assay [3], the “number of plaques in the cortex and amygdala” value is listed as “reduced the number of plaques”; the “number of plaques in the hippocampus” value is “reduced the number of plaques”. Besides, the “diameters of meningeal lymphatic vessels” value in assay [4] is on record as “increase the diameters of meningeal lymphatic vessels”.
